In paper PMC2686270 one finds autophosphorylation restored by combining the two SpaK mutants, each inactive alone (intermolecular complementation; 32P-ATP, SDS-PAGE and autoradiography, Fig. 5B lane 6) (% of wild type) data, which are given here for 1 substance.

The experiment concerns the target 6xHis-SpaK G392A (C-terminal half of SpaK) (Bacillus subtilis).

As to “6xHis-SpaK H247Q (C-terminal half of SpaK) (domain or fragment)”, the autophosphorylation restored by combining the two SpaK mutants, each inactive alone (intermolecular complementation; 32P-ATP, SDS-PAGE and autoradiography, Fig. 5B lane 6) (% of wild type) was found to be 25.
